The values that follow come from the supplement of paper PMC9170038.

In this data set the test system is K4 kissing-loop RNA reporter. Briefly: apparent KD of K4 kissing-loop reporter; higher = weaker reporter binding. Particulars: Eterna round: R107. As to the method: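 RNA-MaP round R107: designed RNA switches with theophylline, tryptophan, arginine or FMN aptamers are transcribed on-chip within common flanks. They are titrated with a labelled K4 kissing-loop RNA reporter in RNA-MaP buffer (100 mM Tris pH 7.5, 80 mM KCl, 4 mM MgCl2), without ligand or with the indicated ligand. Median apparent KD per design.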

The mark [1] stands for this setting: input ligand: theophylline 20 uM.
Where [2] appears, read: input ligand: tryptophan 2.4 mM.
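Further: bound reporter read as fluorescence of individual clusters on recovered sequencing chips by microscopy, with normalized cluster intensities fitted with a binding model.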

Take “AAAAUAAAAGGUCACCCAGUGAUGUUGGAAGGAGCGUGCGAAAGCACAGGUAGGUCGCCAACCUAAAAGUGACCAGGGAAACCCA [#SwitchBubble 7 #K4Early]”: the “apparent KD of K4 kissing-loop reporter” value reads like this: (input ligand: FMN 200 uM) 594 nM; (input ligand: arginine 13.2 mM) 253 nM; (input ligand: none) 171 nM; under setting [1], 183 nM; under setting [2], 276 nM.

With “AAAAUAAACCAGUGAUGUUGGUGUCUGGAUACCAGCGACGAAAGUCGCCCUUGGCAGCUAUGGACGUACAAAAUAAGUACGUCCU [MatMod 7 - Jieux - Same State - Theophylline A]”, the “apparent KD of K4 kissing-loop reporter” value is, setting by setting: (input ligand: FMN 200 uM) 704 nM; (input ligand: arginine 13.2 mM) 485 nM; (input ligand: none) 622 nM; under setting [1], 637 nM; under setting [2], 510 nM.

Take “AAAAUAACCCAGUGAUGUUGGUAACCAGAUACCAGCGACGAAAGUCGCCCUUGGCAGCUGUGGACGUACAAAAUAAGUACGUCCU”: the “apparent KD of K4 kissing-loop reporter” value (input ligand: FMN 200 uM) is 686 nM; the “apparent KD of K4 kissing-loop reporter” value (input ligand: arginine 13.2 mM) stood at 765 nM; the “apparent KD of K4 kissing-loop reporter” value (input ligand: none) is 859 nM; the “apparent KD of K4 kissing-loop reporter” value under setting [1] was 583 nM; the “apparent KD of K4 kissing-loop reporter” value under setting [2] is 649 nM.

Take “AAAAUAAUCCAGUGAUGUUGGUAUCCAGAUACCAGCGACGAAAGUCGCCCUUGGCAGCUGUGGACGUACAAAAUAAGUACGUCCU [#OpenEnded 9 #StaticStem #K4Early]”: the “apparent KD of K4 kissing-loop reporter” value was 502 nM (input ligand: FMN 200 uM); 386 nM (input ligand: arginine 13.2 mM); 535 nM (input ligand: none); 842 nM under setting [1]; 630 nM under setting [2].

For the sequence “AAAAUUAUCUGAAGGAGCGUGAAAUAAUAUUAAACAUAACAACCCAGUGAUGUUGGGUUAUCACAGGUAGGUCGCAGAUGUAGAA [Same State Arginie B GF 25]”, the “apparent KD of K4 kissing-loop reporter” value by setting is: (input ligand: FMN 200 uM) 106 nM; (input ligand: arginine 13.2 mM) 113 nM; (input ligand: none) 108 nM; under setting [1], 115 nM; under setting [2], 90.8 nM.

Take “AAACAUCACUGGGAGUGAUGUUCUCAGUGACGAGGACCGGUACGGCCGCCACUCGCGAGAGAACUAGUCUAGACUUGACUGCAUU [Excl Tryptophan A V14]”: the “apparent KD of K4 kissing-loop reporter” value by setting is: (input ligand: FMN 200 uM) 386 nM; (input ligand: arginine 13.2 mM) 366 nM; (input ligand: none) 356 nM; under setting [1], 425 nM; under setting [2], 428 nM.

“AAACAUCACUGGGAGUGAUGUUCUCAGUGACGAGGACCGGUACGGCCGCCACUCGCGAGAGAUAUAAUUAAGUAAUGACUUCAUU [Excl Tryptophan A V7]”: the “apparent KD of K4 kissing-loop reporter” value amounted to 241 nM (input ligand: FMN 200 uM); 205 nM (input ligand: arginine 13.2 mM); 231 nM (input ligand: none); 246 nM under setting [1]; 287 nM under setting [2].

In the case of “AAACAUCACUGGGAGUGAUGUUCUCAGUGACGAGGACCGGUACGGCCGCCACUCGCGAGAGAUAUAGUCUAGUAUUGACUGCAUU [Excl Tryptophan A V11]”, the “apparent KD of K4 kissing-loop reporter” value reads like this: (input ligand: FMN 200 uM) 242 nM; (input ligand: arginine 13.2 mM) 244 nM; (input ligand: none) 231 nM; under setting [1], 339 nM; under setting [2], 348 nM.

On to “AAACAUUGGUCGGAUACCAGCUUGAUCGGAAACGAUCUGCUGGAGUGAUGUUCCAAGUAAAGCCCUUGGCAGCCGACCGAUGAAA [MAT - Same State Theophlline B - Mod of Eli - D17]”, for which the “apparent KD of K4 kissing-loop reporter” value (input ligand: FMN 200 uM) is 133 nM; the “apparent KD of K4 kissing-loop reporter” value (input ligand: arginine 13.2 mM) came out at 62.8 nM; the “apparent KD of K4 kissing-loop reporter” value (input ligand: none) was 55.6 nM; the “apparent KD of K4 kissing-loop reporter” value under setting [1] came out at 143 nM; the “apparent KD of K4 kissing-loop reporter” value under setting [2] was 74.5 nM.

Consider “AAACAUUGGUCUGAUACCAGCUUGAUCGGAAAACGAUCUGCUGGAGUGAUGUUCCAAUAAAGCCCUUGGCAGCAGACCGAUGAAA [MAT - Same State Theophlline B - Mod of Eli - D13]”, for which the “apparent KD of K4 kissing-loop reporter” value reads like this: (input ligand: FMN 200 uM) 823 nM; (input ligand: arginine 13.2 mM) 444 nM; (input ligand: none) 818 nM; under setting [1], 684 nM; under setting [2], 722 nM.

For the sequence “AAACAUUGGUCUGAUACCAGCUUGAUCGGAAACGAUCUGCUGGAGUGAUGUUCCAAGUAAAGCCCUUGGCAGCAGACCGAUGAAA [MAT - Same State Theophlline B - Mod of Eli - D16]”, the “apparent KD of K4 kissing-loop reporter” value (input ligand: FMN 200 uM) came out at 121 nM; the “apparent KD of K4 kissing-loop reporter” value (input ligand: arginine 13.2 mM) came out at 69.6 nM; the “apparent KD of K4 kissing-loop reporter” value (input ligand: none) was 149 nM; the “apparent KD of K4 kissing-loop reporter” value under setting [1] was 192 nM; the “apparent KD of K4 kissing-loop reporter” value under setting [2] was found to be 115 nM.

For “AAACAUUGGUGCGAUACCAGCUGAUCGGAAACGAUCUUGCUGGAGUGAUGUUCCAAGUAAAGCCCUUGGCAGCGCACCGAUGAAA [MAT - Same State Theophlline B - Mod of Eli - D21]”, the “apparent KD of K4 kissing-loop reporter” value worked out at 135 nM (input ligand: FMN 200 uM); 31.7 nM (input ligand: arginine 13.2 mM); 91.5 nM (input ligand: none); 72 nM under setting [1]; 75.7 nM under setting [2].

For the sequence “AAAGCUCUAUAGAGCAAGAGGUCAACUGAUACCAGAGGCUAUAGCCUCCCUUGGCAGCGGAACGAGUGAUGUUCGAGACCUCAAA [AK6.1 SS Theophylline A]”, the “apparent KD of K4 kissing-loop reporter” value was found to be 1410 nM (input ligand: FMN 200 uM); 1120 nM (input ligand: arginine 13.2 mM); 1610 nM (input ligand: none); 939 nM under setting [1]; 1130 nM under setting [2].

“AAAGCUUGGAUGGACGUUAGCGACGGAGAAGGAGCGCACGGAAGUGCAGGUAGGUCGCUCCGAGUGAUGUUCGUGAGUGAUUGCU [Ditienti]”: the “apparent KD of K4 kissing-loop reporter” value is, setting by setting: (input ligand: FMN 200 uM) 229 nM; (input ligand: arginine 13.2 mM) 329 nM; (input ligand: none) 385 nM; under setting [1], 252 nM; under setting [2], 301 nM.

For the sequence “AAAGGCAAAGCCCGAGUGAUGUUCGACGAUACCAGCCUCGAUAGAGGCCCUUGGCAGCGUAAAUGAUCACAAAGCCAAGGAAUAA [#OpenEnded 2 #StaticStem]”, the “apparent KD of K4 kissing-loop reporter” value runs as follows: (input ligand: FMN 200 uM) 310 nM; (input ligand: arginine 13.2 mM) 244 nM; (input ligand: none) 268 nM; under setting [1], 248 nM; under setting [2], 261 nM.

For the sequence “AAAGGUUGAAGUGAUACCAGACUAGCAGUGAUGUUGCGCCAAAGUGAGUGAUGUUCACCAGUCCCUUGGCAGCACAUGCCUAAAG [Same State Theophylline B GF 13]”, the “apparent KD of K4 kissing-loop reporter” value runs as follows: (input ligand: FMN 200 uM) 985 nM; (input ligand: arginine 13.2 mM) 890 nM; (input ligand: none) 1210 nM; under setting [1], 1310 nM; under setting [2], 811 nM.

As to “AAAGUUGAAAGUGAUACCAGACGAGUGAAGGGAAGAAAUUAAUUUGGAGUGAUGUUCCGCGUCCCUUGGCAGCACUUUGUAAUUU [Exclusion Theophylline B GF 23]”, the “apparent KD of K4 kissing-loop reporter” value by setting is: (input ligand: FMN 200 uM) 123 nM; (input ligand: arginine 13.2 mM) 150 nM; (input ligand: none) 142 nM; under setting [1], 174 nM; under setting [2], 107 nM.
